Measured values as given in US8436140B2, “Natriuretic peptide-mediated imaging of atherosclerotic plaque” (priority 2008, dated 2013).
Positions of bridges follow the written chain, without caps; N, C: chain ends. Residues, ends and D or L forms follow the SMILES beside them. *: point of attachment. DOTA = O=C(O)CN1CCN(CC(=O)O)CCN(CC(=O)*)CCN(CC(=O)O)CC1

What was measured:
in vivo = details: rabbit, iv, 20 MBq, total radioactivity
Method: The blood clearance studies were performed in normal rabbits (n=4) to evaluate the pharmacokinetics of tracer in vivo. About 20 MBq of ^64Cu-DOTA-C-ANF was injected intravenously into the left ear of rabbit, and blood sample (0.2 mL) was drawn from the contralateral ear over the period of 1 h (1 min, 3 min, 5 min, 10 min, 20 min, 40 min and 60 min). The activity of the blood samples were counted in gamma counter and presented in percent injected dose per gram (ID %/g). […] (FIG. 7). This tracer therefore is a highly sensitive means by which to detect a trace amount of ^64Cu-DOTA-C-ANF in the atherosclerotic animal model

[1] = tested on: extracellular matrix proteins such as collagen and proteoglycans; experiment: 3T MRI of atherosclerotic lesion with plaque-targeting contrast agent; format: in vivo, rabbit; details: 0.5 μmol/kg, 1 h before scan, TP 1
Method: The presence of atherosclerotic lesions in the rabbits was confirmed by 3T MRI 1 hour after administration of a non-receptor specific plaque-targeting contrast agent ([…], 0.5 μmol/kg body weight, Schering AG, Germany). […] For scanning, the rabbit was placed supine into a plastic bed. Three micropipette tubes filled with 0.5 mL Gadofluorine M (Bayer Schering Pharma AG, Berlin) served as fiducial markers, and were taped into position on the bed. At the beginning of the PET study, these tubes were drained of the Gadofluorine by syringe, and refilled with 0.5 mL of ^64Cu to serve as the PET fiducials. These helped to “co-localize” the plaque regions between the two image modalities.
In this example, a MR T1 W coronal image of a typical atherosclerotic lesion in the femoral artery of a rabbit 4 weeks after air dessication-induced injury (TP 1) is shown (FIG. 6). Gadofluorine M (0.5 μmol/kg body weight) was given 1 h before the scan. […] MRI confirmed the presence of a thickened neointima in the injured vessel characteristic of the atherosclerotic-like plaques induced in this model.

CC[C@H](C)[C@@H]1NC(=O)[C@H](CCCNC(=N)N)NC(=O)[C@H](CC(=O)O)NC(=O)[C@H]([C@@H](C)CC)NC(=O)[C@H](CCCNC(=N)N)NC(=O)CNC(=O)CNC(=O)[C@H](Cc2ccccc2)NC(=O)[C@@H](NC(=O)[C@H](CO)NC(=O)[C@H](CO)NC(=O)[C@H](CCCNC(=N)N)NC(=O)CN2CCN(CC(=O)O)CCN(CC(=O)O)CCN(CC(=O)O)CC2)CSSC[C@@H](C(N)=O)NC(=O)[C@H](C)NC(=O)CNC1=O [^64Cu-DOTA-C-ANF, metal not drawn] ({DOTA}-RSSCFGGRIDRIGAC-NH2; disulfide 4-15)
tissue uptake at 1 min (in vivo): 0.22 %ID/g | tissue uptake at 0.05 h (in vivo): 0.1 %ID/g | tissue uptake at 1 h (in vivo): 0.02 %ID/g

CC(C(=O)NCC(=O)NCCCC[C@H](NC(=O)CO[C@H]1O[C@H](CO)[C@@H](O)[C@H](O)[C@@H]1O)C(=O)N1CCN(S(=O)(=O)C(F)(F)C(F)(F)C(F)(F)C(F)(F)C(F)(F)C(F)(F)C(F)(F)C(F)(F)F)CC1)N1CCN(CC(=O)O)CCN(CC(=O)O)CCN(CC(=O)O)CC1 (some centres unmarked) [Gadofluorine M]
contrast agent at injured femoral artery (MR T1W image) [1]: binding | contrast agent uptake in control artery (MR T1W image) [1]: weak uptake
